B1: BBSome complex member BBS4 (Homo sapiens), Q96RK4 (parent)
chain: MAEERVATRTQFPVSTESQKPRQKKAPEFPILEKQNWLIHLHYIRKDYEACKAVIKEQLQETQGLCEYAIYVQALIFRLEGNIQESLELFQTCAVLSPQSADNLKQVARSLFLLGKHKAAIEVYNEAAKLNQKDWEISHNLGVCYIYLKQFNKAQDQLHNALNLNRHDLTYIMLGKIHLLEGDLDKAIEVYKKAVEFSPENTELLTTLGLLYLQLGIYQKAFEHLGNALTYDPTNYKAILAAGSMMQTHGDFDVALTKYRVVACAVPESPPLWNNIGMCFFGKKKYVAAISCLKRANYLAPFDWKILYNLGLVHLTMQQYASAFHFLSAAINFQPKMGELYMLLAVALTNLEDIENAKRAYAEAVHLDKCNPLVNLNYAVLLYNQGEKKNALAQYQEMEKKVSLLKDNSSLEFDSEMVEMAQKLGAALQVGEALVWTKPVKDPKSKHQTTSTSKPASFQQPLGSNQALGQAMSSAAAYRTLPSGAGGTSQFTKPPSLPLEPEPAVESSPTETSEQIREK
partner: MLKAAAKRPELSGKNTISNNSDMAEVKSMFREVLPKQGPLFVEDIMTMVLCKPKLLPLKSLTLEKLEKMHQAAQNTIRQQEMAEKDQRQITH

Variants of: B1
Details: with bbip1_human BBIP1, A8MTZ0

effect of a mutation on the interaction | Variant
disrupting interaction strength | MAEERVATRTQFPVSTESQKPRQKKAPEFPILEKQNWLIHLHYIRKDYEACKAVIKEQLQETQGLCEYAIYVQALIFRLEGNIQESLELFQTCAVLSPQSADNLKQVARSLFLLGKHKAAIEVYNEAAKLNQKDWEISHNLGVCYIYLKQFNKAQDQLHNALNLNRHDLTYIMLGKIHLLEGDLDKAIEVYKKAVEFSPENTELLTTLGLLYLQLGIYQKAFEHLGNALTYDPTNYKAILAAGSMMQTHGDFDVALTKYRVVACAVPESPPLWNNIGMCFFGKKKYVAAISCLKRANYLAPFDWKILYNLGLVHLTMQQYASAFHFLSAAINFQPKMGELYMLLAVALTNLEDIENAKRAYAEAVHLDKCNSLVNLNYAVLLYNQGEKKNALAQYQEMEKKVSLLKDNSSLEFDSEMVEMAQKLGAALQVGEALVWTKPVKDPKSKHQTTSTSKPASFQQPLGSNQALGQAMSSAAAYRTLPSGAGGTSQFTKPPSLPLEPEPAVESSPTETSEQIREK [P372S]
with no effect | MAEERVATRTQFPVSTESQKPRQKKAPEFPILEKQNWLIHLHYIRKDYEACKAVIKEQLQETQGLCEYAIYVQALIFRLEGNIQESLELFQTCAVLSPQSADNLKQVARSLFLLGKHKAAIEVYNEAAKLNQKDWEISHNLGVCYIYLKQFNKAQDQLHNALNLNRHDLTYIMLGKIHLLEGDLDKAIEVYKKAVEFSPENTELLTTLGLLYLQLGIYQKAFEHLGNALTYDPTNYKAILAAGSMMQTHGDFDVALTKYRVVACAVPESPPLWNNIGMCFFGKKKYVAAISCLKRANYLAPFDWKILYNLGLVHLTMQQYASAFHFLSAAINFQPKMGELYMLLAVALTNLEDIENAKRAYAEAVHLDKCNPKVNLNYAVLLYNQGEKKNALAQYQEMEKKVSLLKDNSSLEFDSEMVEMAQKLGAALQVGEALVWTKPVKDPKSKHQTTSTSKPASFQQPLGSNQALGQAMSSAAAYRTLPSGAGGTSQFTKPPSLPLEPEPAVESSPTETSEQIREK [L373K]
disrupting interaction strength | MAEERVATRTQFPVSTESQKPRQKKAPEFPILEKQNWLIHLHYIRKDYEACKAVIKEQLQETQGLCEYAIYVQALIFRLEGNIQESLELFQTCAVLSPQSADNLKQVARSLFLLGKHKAAIEVYNEAAKLNQKDWEISHNLGVCYIYLKQFNKAQDQLHNALNLNRHDLTYIMLGKIHLLEGDLDKAIEVYKKAVEFSPENTELLTTLGLLYLQLGIYQKAFEHLGNALTYDPTNYKAILAAGSMMQTHGDFDVALTKYRVVACAVPESPPLWNNIGMCFFGKKKYVAAISCLKRANYLAPFDWKILYNLGLVHLTMQQYASAFHFLSAAINFQPKMGELYMLLAVALTNLEDIENAKRAYAEAVHLDKCNPSVNLNYAVLLYNQGEKKNALAQYQEMEKKVSLLKDNSSLEFDSEMVEMAQKLGAALQVGEALVWTKPVKDPKSKHQTTSTSKPASFQQPLGSNQALGQAMSSAAAYRTLPSGAGGTSQFTKPPSLPLEPEPAVESSPTETSEQIREK [L373S]
with no effect | MAEERVATRTQFPVSTESQKPRQKKAPEFPILEKQNWLIHLHYIRKDYEACKAVIKEQLQETQGLCEYAIYVQALIFRLEGNIQESLELFQTCAVLSPQSADNLKQVARSLFLLGKHKAAIEVYNEAAKLNQKDWEISHNLGVCYIYLKQFNKAQDQLHNALNLNRHDLTYIMLGKIHLLEGDLDKAIEVYKKAVEFSPENTELLTTLGLLYLQLGIYQKAFEHLGNALTYDPTNYKAILAAGSMMQTHGDFDVALTKYRVVACAVPESPPLWNNIGMCFFGKKKYVAAISCLKRANYLAPFDWKILYNLGLVHLTMQQYASAFHFLSAAINFQPKMGELYMLLAVALTNLEDIENAKRAYAEAVHLDKCNPLVELNYAVLLYNQGEKKNALAQYQEMEKKVSLLKDNSSLEFDSEMVEMAQKLGAALQVGEALVWTKPVKDPKSKHQTTSTSKPASFQQPLGSNQALGQAMSSAAAYRTLPSGAGGTSQFTKPPSLPLEPEPAVESSPTETSEQIREK [N375E]

Further lines, the variant ahead of its results:

Variant | effect of a mutation on the interaction
MAEERVATRTQFPVSTESQKPRQKKAPEFPILEKQNWLIHLHYIRKDYEACKAVIKEQLQETQGLCEYAIYVQALIFRLEGNIQESLELFQTCAVLSPQSADNLKQVARSLFLLGKHKAAIEVYNEAAKLNQKDWEISHNLGVCYIYLKQFNKAQDQLHNALNLNRHDLTYIMLGKIHLLEGDLDKAIEVYKKAVEFSPENTELLTTLGLLYLQLGIYQKAFEHLGNALTYDPTNYKAILAAGSMMQTHGDFDVALTKYRVVACAVPESPPLWNNIGMCFFGKKKYVAAISCLKRANYLAPFDWKILYNLGLVHLTMQQYASAFHFLSAAINFQPKMGELYMLLAVALTNLEDIENAKRAYAEAVHLDKCNLLVNLNYAVLLYNQGEKKNALAQYQEMEKKVSLLKDNSSLEFDSEMVEMAQKLGAALQVGEALVWTKPVKDPKSKHQTTSTSKPASFQQPLGSNQALGQAMSSAAAYRTLPSGAGGTSQFTKPPSLPLEPEPAVESSPTETSEQIREK [P372L] | disrupting interaction strength
MAEERVATRTQFPVSTESQKPRQKKAPEFPILEKQNWLIHLHYIRKDYEACKAVIKEQLQETQGLCEYAIYVQALIFRLEGNIQESLELFQTCAVLSPQSADNLKQVARSLFLLGKHKAAIEVYNEAAKLNQKDWEISHNLGVCYIYLKQFNKAQDQLHNALNLNRHDLTYIMLGKIHLLEGDLDKAIEVYKKAVEFSPENTELLTTLGLLYLQLGIYQKAFEHLGNALTYDPTNYKAILAAGSMMQTHGDFDVALTKYRVVACAVPESPPLWNNIGMCFFGKKKYVAAISCLKRANYLAPFDWKILYNLGLVHLTMQQYASAFHFLSAAINFQPKMGELYMLLAVALTNLEDIENAKRAYAEAVHLDKCNPAVNLNYAVLLYNQGEKKNALAQYQEMEKKVSLLKDNSSLEFDSEMVEMAQKLGAALQVGEALVWTKPVKDPKSKHQTTSTSKPASFQQPLGSNQALGQAMSSAAAYRTLPSGAGGTSQFTKPPSLPLEPEPAVESSPTETSEQIREK [L373A] | with no effect
MAEERVATRTQFPVSTESQKPRQKKAPEFPILEKQNWLIHLHYIRKDYEACKAVIKEQLQETQGLCEYAIYVQALIFRLEGNIQESLELFQTCAVLSPQSADNLKQVARSLFLLGKHKAAIEVYNEAAKLNQKDWEISHNLGVCYIYLKQFNKAQDQLHNALNLNRHDLTYIMLGKIHLLEGDLDKAIEVYKKAVEFSPENTELLTTLGLLYLQLGIYQKAFEHLGNALTYDPTNYKAILAAGSMMQTHGDFDVALTKYRVVACAVPESPPLWNNIGMCFFGKKKYVAAISCLKRANYLAPFDWKILYNLGLVHLTMQQYASAFHFLSAAINFQPKMGELYMLLAVALTNLEDIENAKRAYAEAVHLDKCNPEVNLNYAVLLYNQGEKKNALAQYQEMEKKVSLLKDNSSLEFDSEMVEMAQKLGAALQVGEALVWTKPVKDPKSKHQTTSTSKPASFQQPLGSNQALGQAMSSAAAYRTLPSGAGGTSQFTKPPSLPLEPEPAVESSPTETSEQIREK [L373E] | with no effect
MAEERVATRTQFPVSTESQKPRQKKAPEFPILEKQNWLIHLHYIRKDYEACKAVIKEQLQETQGLCEYAIYVQALIFRLEGNIQESLELFQTCAVLSPQSADNLKQVARSLFLLGKHKAAIEVYNEAAKLNQKDWEISHNLGVCYIYLKQFNKAQDQLHNALNLNRHDLTYIMLGKIHLLEGDLDKAIEVYKKAVEFSPENTELLTTLGLLYLQLGIYQKAFEHLGNALTYDPTNYKAILAAGSMMQTHGDFDVALTKYRVVACAVPESPPLWNNIGMCFFGKKKYVAAISCLKRANYLAPFDWKILYNLGLVHLTMQQYASAFHFLSAAINFQPKMGELYMLLAVALTNLEDIENAKRAYAEAVHLDKCNPLANLNYAVLLYNQGEKKNALAQYQEMEKKVSLLKDNSSLEFDSEMVEMAQKLGAALQVGEALVWTKPVKDPKSKHQTTSTSKPASFQQPLGSNQALGQAMSSAAAYRTLPSGAGGTSQFTKPPSLPLEPEPAVESSPTETSEQIREK [V374A] | with no effect
MAEERVATRTQFPVSTESQKPRQKKAPEFPILEKQNWLIHLHYIRKDYEACKAVIKEQLQETQGLCEYAIYVQALIFRLEGNIQESLELFQTCAVLSPQSADNLKQVARSLFLLGKHKAAIEVYNEAAKLNQKDWEISHNLGVCYIYLKQFNKAQDQLHNALNLNRHDLTYIMLGKIHLLEGDLDKAIEVYKKAVEFSPENTELLTTLGLLYLQLGIYQKAFEHLGNALTYDPTNYKAILAAGSMMQTHGDFDVALTKYRVVACAVPESPPLWNNIGMCFFGKKKYVAAISCLKRANYLAPFDWKILYNLGLVHLTMQQYASAFHFLSAAINFQPKMGELYMLLAVALTNLEDIENAKRAYAEAVHLDKCNPLENLNYAVLLYNQGEKKNALAQYQEMEKKVSLLKDNSSLEFDSEMVEMAQKLGAALQVGEALVWTKPVKDPKSKHQTTSTSKPASFQQPLGSNQALGQAMSSAAAYRTLPSGAGGTSQFTKPPSLPLEPEPAVESSPTETSEQIREK [V374E] | with no effect
MAEERVATRTQFPVSTESQKPRQKKAPEFPILEKQNWLIHLHYIRKDYEACKAVIKEQLQETQGLCEYAIYVQALIFRLEGNIQESLELFQTCAVLSPQSADNLKQVARSLFLLGKHKAAIEVYNEAAKLNQKDWEISHNLGVCYIYLKQFNKAQDQLHNALNLNRHDLTYIMLGKIHLLEGDLDKAIEVYKKAVEFSPENTELLTTLGLLYLQLGIYQKAFEHLGNALTYDPTNYKAILAAGSMMQTHGDFDVALTKYRVVACAVPESPPLWNNIGMCFFGKKKYVAAISCLKRANYLAPFDWKILYNLGLVHLTMQQYASAFHFLSAAINFQPKMGELYMLLAVALTNLEDIENAKRAYAEAVHLDKCNPLKNLNYAVLLYNQGEKKNALAQYQEMEKKVSLLKDNSSLEFDSEMVEMAQKLGAALQVGEALVWTKPVKDPKSKHQTTSTSKPASFQQPLGSNQALGQAMSSAAAYRTLPSGAGGTSQFTKPPSLPLEPEPAVESSPTETSEQIREK [V374K] | with no effect
MAEERVATRTQFPVSTESQKPRQKKAPEFPILEKQNWLIHLHYIRKDYEACKAVIKEQLQETQGLCEYAIYVQALIFRLEGNIQESLELFQTCAVLSPQSADNLKQVARSLFLLGKHKAAIEVYNEAAKLNQKDWEISHNLGVCYIYLKQFNKAQDQLHNALNLNRHDLTYIMLGKIHLLEGDLDKAIEVYKKAVEFSPENTELLTTLGLLYLQLGIYQKAFEHLGNALTYDPTNYKAILAAGSMMQTHGDFDVALTKYRVVACAVPESPPLWNNIGMCFFGKKKYVAAISCLKRANYLAPFDWKILYNLGLVHLTMQQYASAFHFLSAAINFQPKMGELYMLLAVALTNLEDIENAKRAYAEAVHLDKCNPLVALNYAVLLYNQGEKKNALAQYQEMEKKVSLLKDNSSLEFDSEMVEMAQKLGAALQVGEALVWTKPVKDPKSKHQTTSTSKPASFQQPLGSNQALGQAMSSAAAYRTLPSGAGGTSQFTKPPSLPLEPEPAVESSPTETSEQIREK [N375A] | with no effect

From IntAct's records for PubMed 29039417
